Experimental data taken from the RNAGym collection of RNA variant scans (doi:10.7554/elife.80360).

B1: Hairpin Ribozyme (parent)
chain: GUCCUCUUUCACGUGCGCGUGAAAGAGAGAAGUGAACCAGAGAAACACACGUUGUGGUAUAUUACCUGGUA

Variants of: B1
Assay: self-cleavage, relative activity (ratio to wild type); higher = more cleavage; co-transcriptional

Variant | self-cleavage
GUCCUCUUUCACGUGCGCGUGAAAUAGAGAAGUGAACCAGAGAAACACACGUUGUGGUAUAGUACCUGGUA [G25U U62G] | 0.237
GUCCUCUUUCACGUGCGCGUGAAAUAGAGAAGUGAACCAGAGAAACACACGUUGUGGUAUAAUACCUGGUA [G25U U62A] | 0.114
GUCCUCUUUCACGUGCGCGUGAAAUAGAGAAGUGAACCAGAGAAACACACGUUGCGGUAUAUUACCUGGUA [G25U U55C] | 0.205
GUCCUCUUUCACGUGCGCGUGAAAGCGAGAAGUGACCCAGAGAAACACACGUUGUGGUAUAUUACCUGGUA [A26C A36C] | 0.488
GUCCUCUUUCACGUGCGCGUGAAAUAGAGAAGUGAACCAGAGAAACACACGAUGUGGUAUAUUACCUGGUA [G25U U52A] | 0.55
GUCCUCUUUCACGUGCGCGUGAAAGCGUGAAGUGAACCAGAGAAACACACGUUGUGGUAUAUUACCUGGUA [A26C A28U] | 0.291
GUCCUCUUUCACGUGCGCGUGAAAGCGAGAAGUGAACCAGAGAAACACACGUUGUAGUAUAUUACCUGGUA [A26C G56A] | 0.163
GUCCUCUUUCACGUGCGCGUGAAAGCGAGAAGUGAACCAGAGAAACACACGUUGUCGUAUAUUACCUGGUA [A26C G56C] | 0.0943
GUCCUCUUUCACGUGCGCGUGAAAGCGAGAAGUGAACCAGAGAAACACACGUUGUGGUAUAUAACCUGGUA [A26C U63A] | 0.175
GUCCUCUUUCACGUGCGCGUGAAAGCGAGAAGUGAACCAGAGAAACACACGUUGUGGUAUAUUACCGGGUA [A26C U67G] | 0.196
GUCCUCUUUCACGUGCGCGUGAAAGCGAGAAGUGAACCAGAGAGACACACGUUGUGGUAUAUUACCUGGUA [A26C A44G] | 0.124
GUCCUCUUUCACGUGCGCGUGAAAGCGAGAAGUGAACCAGAGACACACACGUUGUGGUAUAUUACCUGGUA [A26C A44C] | 0.0715
GUCCUCUUUCACGUGCGCGUGAAAGCGAGAAGUGAACCAGACAAACACACGUUGUGGUAUAUUACCUGGUA [A26C G42C] | 0.357
GUCCUCUUUCACGUGCGCGUGAAAUAGAGAAGUGAACCAGAGAAACACACGUUGUGGCAUAUUACCUGGUA [G25U U58C] | 0.503
GUCCUCUUUCACGUGCGCGUGAAAUAGAGAAGUGAACCAGAGAAACACACGUUGUGGAAUAUUACCUGGUA [G25U U58A] | 0.447
GUCCUCUUUCACGUGCGCGUGAAAGGGAGAAGUGAACCAGAGGAACACACGUUGUGGUAUAUUACCUGGUA [A26G A43G] | 0.114
GUCCUCUUUCACGUGCGCGUGAAAGGGAGAAGUGAACCAGAGCAACACACGUUGUGGUAUAUUACCUGGUA [A26G A43C] | 0.11
GUCCUCUUUCACGUGCGCGUGAAAGGGAGAAGUGAAGCAGAGAAACACACGUUGUGGUAUAUUACCUGGUA [A26G C37G] | 0.237
GUCCUCUUUCACGUGCGCGUGAAAGGGAGAAGUGAAUCAGAGAAACACACGUUGUGGUAUAUUACCUGGUA [A26G C37U] | 0.602
GUCCUCUUUCACGUGCGCGUGAAAGCGAGAAGUGAACCUGAGAAACACACGUUGUGGUAUAUUACCUGGUA [A26C A39U] | 0.303
GUCCUCUUUCACGUGCGCGUGAAAGCGAGAAGUGAACCCGAGAAACACACGUUGUGGUAUAUUACCUGGUA [A26C A39C] | 0.47
GUCCUCUUUCACGUGCGCGUGAAAGCGAGAAGUGAACCAGAGAAACACACGUGGUGGUAUAUUACCUGGUA [A26C U53G] | 0.883
GUCCUCUUUCACGUGCGCGUGAAAGCGAGAAGUGAACCAGAGAAACACACGUUGUGCUAUAUUACCUGGUA [A26C G57C] | 0.0672
GUCCUCUUUCACGUGCGCGUGAAAGGGAGAAGUGAACCAGAGAAACAGACGUUGUGGUAUAUUACCUGGUA [A26G C48G] | 0.14
GUCCUCUUUCACGUGCGCGUGAAAGGGAGAAGUGAACCAGAGAAACAUACGUUGUGGUAUAUUACCUGGUA [A26G C48U] | 0.18
GUCCUCUUUCACGUGCGCGUGAAAGCGAGAAGUGAACCAGAGAAACACACCUUGUGGUAUAUUACCUGGUA [A26C G51C] | 0.714

Variant | self-cleavage
GUCCUCUUUCACGUGCGCGUGAAAGCGAGAAGUGAACCAGAGAAACACACUUUGUGGUAUAUUACCUGGUA [A26C G51U] | 0.919
GUCCUCUUUCACGUGCGCGUGAAAGCGAGAACUGAACCAGAGAAACACACGUUGUGGUAUAUUACCUGGUA [A26C G32C] | 0.175
GUCCUCUUUCACGUGCGCGUGAAAGCGAGAAAUGAACCAGAGAAACACACGUUGUGGUAUAUUACCUGGUA [A26C G32A] | 0.0538
GUCCUCUUUCACGUGCGCGUGAAAGCGAGAAGUGAACCAGAGAAACACACGUUGUGGUAUAUUACCUGUUA [A26C G69U] | 0.108
GUCCUCUUUCACGUGCGCGUGAAAGCGAGAAGUGAACCAGAGAAACACACGUUGUGGUAUAUUACCUGCUA [A26C G69C] | 0.212
GUCCUCUUUCACGUGCGCGUGAAAGCGAGAAGUGAACUAGAGAAACACACGUUGUGGUAUAUUACCUGGUA [A26C C38U] | 0.416
GUCCUCUUUCACGUGCGCGUGAAAGCGAGAAGUGAACGAGAGAAACACACGUUGUGGUAUAUUACCUGGUA [A26C C38G] | 0.182
GUCCUCUUUCACGUGCGCGUGAAAGCGAGAAGUGAACAAGAGAAACACACGUUGUGGUAUAUUACCUGGUA [A26C C38A] | 0.163
GUCCUCUUUCACGUGCGCGUGAAAUAGAGAAGUGAACCAGAGAAACACACGUUGUGGUAUAUAACCUGGUA [G25U U63A] | 0.184
GUCCUCUUUCACGUGCGCGUGAAAGCCAGAAGUGAACCAGAGAAACACACGUUGUGGUAUAUUACCUGGUA [A26C G27C] | 0.197
GUCCUCUUUCACGUGCGCGUGAAAGCUAGAAGUGAACCAGAGAAACACACGUUGUGGUAUAUUACCUGGUA [A26C G27U] | 0.0629
GUCCUCUUUCACGUGCGCGUGAAAGGGAGAAGUGAACCAGAGAAACUCACGUUGUGGUAUAUUACCUGGUA [A26G A47U] | 0.152
GUCCUCUUUCACGUGCGCGUGAAAGGGAGAAGUGAACCAGAGAAACCCACGUUGUGGUAUAUUACCUGGUA [A26G A47C] | 0.251
GUCCUCUUUCACGUGCGCGUGAAAGCGAGAAGUGAACCAGAGAAACACACGCUGUGGUAUAUUACCUGGUA [A26C U52C] | 0.811
GUCCUCUUUCACGUGCGCGUGAAAGCGAGAAGUGAACCAGAGAAACACACGUUGUGGUAUAUUACCUAGUA [A26C G68A] | 0.117
GUCCUCUUUCACGUGCGCGUGAAAGCGAGAAGUGAACCAGAGAAACACACGUUGUGGUAUAUUACCUGGUU [A26C A71U] | 0.567
GUCCUCUUUCACGUGCGCGUGAAAGCGAGAAGUGAACCAGAGAAACACCCGUUGUGGUAUAUUACCUGGUA [A26C A49C] | 0.218
GUCCUCUUUCACGUGCGCGUGAAAGGGAGAAGUGAACCAGAGAAACACACGUUGUGGUAUUUUACCUGGUA [A26G A61U] | 0.281
GUCCUCUUUCACGUGCGCGUGAAAGGGAGAAGUGAACCGGAGAAACACACGUUGUGGUAUAUUACCUGGUA [A26G A39G] | 0.379
GUCCUCUUUCACGUGCGCGUGAAAGGGAGAAGUGAACCAGAGAUACACACGUUGUGGUAUAUUACCUGGUA [A26G A44U] | 0.103
GUCCUCUUUCACGUGCGCGUGAAAGCGAGAAGUGAACCAGAGAAAAACACGUUGUGGUAUAUUACCUGGUA [A26C C46A] | 0.175
GUCCUCUUUCACGUGCGCGUGAAAGCGAGAAGUGAACCAGAGAAACACACGUUGCGGUAUAUUACCUGGUA [A26C U55C] | 0.211
GUCCUCUUUCACGUGCGCGUGAAAGGGAGAAGUGAACCAGAGAAACACAUGUUGUGGUAUAUUACCUGGUA [A26G C50U] | 0.347
GUCCUCUUUCACGUGCGCGUGAAAGCGAGAAGUGAACCAGAGAAACACACGUUGUGGUAUAGUACCUGGUA [A26C U62G] | 0.0946
GUCCUCUUUCACGUGCGCGUGAAAGCGAGAAGUGAACCAGAGAAACUCACGUUGUGGUAUAUUACCUGGUA [A26C A47U] | 0.0646
GUCCUCUUUCACGUGCGCGUGAAAGCGAGAAGUGAACCAGAGAAACGCACGUUGUGGUAUAUUACCUGGUA [A26C A47G] | 0.187

Variant | self-cleavage
GUCCUCUUUCACGUGCGCGUGAAAGCGAGAAGUGAACCAGAGAAACACACGUUGUGGUCUAUUACCUGGUA [A26C A59C] | 0.0674
GUCCUCUUUCACGUGCGCGUGAAAGGGAGAAGUGAACCAGAGAAACACACGUUGUGGUAUAUUAGCUGGUA [A26G C65G] | 0.23
GUCCUCUUUCACGUGCGCGUGAAAGCGAGAAGUGAACCACAGAAACACACGUUGUGGUAUAUUACCUGGUA [A26C G40C] | 0.11
GUCCUCUUUCACGUGCGCGUGAAAGCGAGAAGUGAACCAUAGAAACACACGUUGUGGUAUAUUACCUGGUA [A26C G40U] | 0.114
GUCCUCUUUCACGUGCGCGUGAAAGGGAGAAGUGAACCAGAGAAACACACGUUGUGGUAUAUUACCUGGUU [A26G A71U] | 0.823
GUCCUCUUUCACGUGCGCGUGAAAGGGAGAAGUGAACCAGAGAAACACACGUUGUGGUAUAUUACCUGGUG [A26G A71G] | 0.935
GUCCUCUUUCACGUGCGCGUGAAAGGGAGAAGUGGACCAGAGAAACACACGUUGUGGUAUAUUACCUGGUA [A26G A35G] | 0.763
GUCCUCUUUCACGUGCGCGUGAAAGGGAGAAGUGUACCAGAGAAACACACGUUGUGGUAUAUUACCUGGUA [A26G A35U] | 0.523
GUCCUCUUUCACGUGCGCGUGAAAGGGAGAAGUGCACCAGAGAAACACACGUUGUGGUAUAUUACCUGGUA [A26G A35C] | 0.799
GUCCUCUUUCACGUGCGCGUGAAAGCGAGCAGUGAACCAGAGAAACACACGUUGUGGUAUAUUACCUGGUA [A26C A30C] | 0.25
GUCCUCUUUCACGUGCGCGUGAAAGCGAGAAGUGAACCAGAGAAACACACGUUGUGGUAUAUUACCUGGAA [A26C U70A] | 0.63
GUCCUCUUUCACGUGCGCGUGAAAGGGAGGAGUGAACCAGAGAAACACACGUUGUGGUAUAUUACCUGGUA [A26G A30G] | 0.0496
GUCCUCUUUCACGUGCGCGUGAAAGGGAGCAGUGAACCAGAGAAACACACGUUGUGGUAUAUUACCUGGUA [A26G A30C] | 0.0939
GUCCUCUUUCACGUGCGCGUGAAAGGGAGAAGUGAGCCAGAGAAACACACGUUGUGGUAUAUUACCUGGUA [A26G A36G] | 0.769
GUCCUCUUUCACGUGCGCGUGAAAGCGAGAAGUAAACCAGAGAAACACACGUUGUGGUAUAUUACCUGGUA [A26C G34A] | 0.906
GUCCUCUUUCACGUGCGCGUGAAAGCGAGAAGUGUACCAGAGAAACACACGUUGUGGUAUAUUACCUGGUA [A26C A35U] | 0.495
GUCCUCUUUCACGUGCGCGUGAAAGCGAGAAGUGGACCAGAGAAACACACGUUGUGGUAUAUUACCUGGUA [A26C A35G] | 0.529
GUCCUCUUUCACGUGCGCGUGAAAGCGAGAAGUGAACCAGAGAAACACAGGUUGUGGUAUAUUACCUGGUA [A26C C50G] | 0.174
GUCCUCUUUCACGUGCGCGUGAAAGCGAGAAGCGAACCAGAGAAACACACGUUGUGGUAUAUUACCUGGUA [A26C U33C] | 0.143
GUCCUCUUUCACGUGCGCGUGAAAGCGAGAAGAGAACCAGAGAAACACACGUUGUGGUAUAUUACCUGGUA [A26C U33A] | 0.23
GUCCUCUUUCACGUGCGCGUGAAAGGGAGAGGUGAACCAGAGAAACACACGUUGUGGUAUAUUACCUGGUA [A26G A31G] | 0.884
GUCCUCUUUCACGUGCGCGUGAAAGCGAGAAGUGAACCAGAGAAACAGACGUUGUGGUAUAUUACCUGGUA [A26C C48G] | 0.138
GUCCUCUUUCACGUGCGCGUGAAAGGGAGAAGUGAACCAGAGAAUCACACGUUGUGGUAUAUUACCUGGUA [A26G A45U] | 0.148
GUCCUCUUUCACGUGCGCGUGAAAGCGAGAAGUGAACCAGAGAAACACACGUUCUGGUAUAUUACCUGGUA [A26C G54C] | 0.243
